# Measurements reported in patent US8343500 (APITOPE TECHNOLOGY BRISTOL, dated 2013).
# Experiments:
# HLA-DQ6 = HLA-DQ6 (human, UniProt P01909 24-254; P01920 33-261); assay: cell-based or functional assay
# HLA-DR2b = target: T1, HLA-DR2b (human); assay: conclusion of Example 6; tolerance induction in HLA:DR2 (DRB1*1501) transgenic mice, no direct binding assay
# T1 construct: whole, on cells; also called DR2b [DRB1*1501]; HLA:DR2 (DRB1*1501)
binder,measurement,setting,value
PRHRDTGILDSIGRF [MBP 30-44],"proliferation of T-cell clone MS 49:D3 ([3H]-thymidine, stimulation index), against Mgar control cells",HLA-DQ6,1.5 fold
GFKGVDAQGTLSKIF (also called ATX-MS-06; APITOPE MS6) [MBP 140-154],binding result,HLA-DR2b,binds
RASDYKSAHKGFKGV [MBP 130-144],"proliferation of T-cell clone MS17:A2 ([3H]-thymidine, stimulation index), against Mgar control cells",HLA-DQ6,3.24 fold
